In PMC4114980:

Biological target: purified bovine brain tubulin (bovine) (UniProt Q6B856)
Test: co-sedimentation; constant Chro-CTD (10 µg) with 0.125–2.5 µM taxol-stabilized microtubules from bovine brain tubulin; bound fraction in pellets by densitometry of immunoblots; Kd from a Lineweaver-Burk plot; three independent experiments

B1: Chro-CTD (329–926), COOH-terminal domain of Chromator, GST-fusion protein (domain or fragment)
chain: AMDAFKQWVNETVAGDGSSSPSSANEDESSTEQEWPPSSGAIKRKLNNTDSSLEGSGLNDSMDLEDLEEDLPSHTVKRLKNGGSSVQLNKPRIQSTEKQQTKINGNSTVVSPLTEQKMGEIIYTEDSTSSGMFRKPEMPNTINLKKEKPECPVRYLSRSEVGSSTRGVFRVENSEAPAPVSPAPVPQKVIAAPPAAGIAKRLPMARPAHSGANSPITVGQRQHALRTPGHGPVTAALHRRPGVGGASHVRQNLQQAPGRAHPGGRVLARAGVGTPQHRQQVQTPQGAKAVTPEQKILQLSKSGDLKVTRKVVTREELLAQRSAQARQRQALSQQQSSQQQKATPARQRIVSKSTIQPTPLQMELEEEIHQHQAQLCPITGKLIGQEETQLQMEQEQQQEQQREQLEAAAQALLGSDQQVLTNEDGSALLVRGEDGTVYQVAGKNAEGQTILVTQGPDGEQQFAYVAAAEGEDQDVLSLDHAVAEAVQAGEQVESHGVGAATADGEQILVSMTEEELAQHQVLQQAEASAAGTGTPPTAQIHITTSDSDGTESQIPAEVVQADLPSPGGTRRVVLLLQDGTFMMTEMHEDQFKTLNIPT
Question: With B1 as the binder, how does the Kd read?
Answer: 230 nM
